According to paper PMC6143631 (Nature Communications, 2018):

T1: Ctr9^(1–313) (S. cerevisiae, UniProt P89105 1-313)
T1 construct: In the crystal it stood as part of the single-chain fusion m36; source: E. coli BL21(DE3) Codon Plus, co-expressed with a Paf1 fragment, purified (Ni-NTA, SEC)
T1 sequence (looked up): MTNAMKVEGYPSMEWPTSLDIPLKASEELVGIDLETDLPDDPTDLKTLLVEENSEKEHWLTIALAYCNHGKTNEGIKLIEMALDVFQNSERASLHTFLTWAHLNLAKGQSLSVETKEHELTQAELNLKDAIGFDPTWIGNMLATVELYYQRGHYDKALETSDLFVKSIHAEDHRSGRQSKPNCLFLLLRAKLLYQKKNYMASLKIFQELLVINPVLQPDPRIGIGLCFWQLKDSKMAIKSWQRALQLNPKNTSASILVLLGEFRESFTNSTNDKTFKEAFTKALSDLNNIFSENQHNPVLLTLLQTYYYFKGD

T2: Ctr9^(1–270) (S. cerevisiae, UniProt P89105 1-270)
T2 construct: S. cerevisiae Ctr9, residues 1-270
T2 sequence (looked up): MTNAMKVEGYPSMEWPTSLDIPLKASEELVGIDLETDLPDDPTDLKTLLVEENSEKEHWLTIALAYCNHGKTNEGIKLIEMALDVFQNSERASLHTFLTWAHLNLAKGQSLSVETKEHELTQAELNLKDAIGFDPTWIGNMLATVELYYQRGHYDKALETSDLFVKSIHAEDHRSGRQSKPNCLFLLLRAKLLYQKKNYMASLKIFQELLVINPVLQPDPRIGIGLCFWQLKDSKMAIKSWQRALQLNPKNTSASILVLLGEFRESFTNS


What was measured:
Ctr9^(1–313) = molecular target: T1, Ctr9^(1–313); assay: SEC; two fragments co-expressed in E. coli and co-purified; analytical size-exclusion column with SDS-PAGE of the fractions; conditions: both partners purified
Ctr9^(1–270) = molecular target: T2, Ctr9^(1–270); assay: AUC; sedimentation velocity, 42,000 rpm, 4 °C, interference detection; 20 mM HEPES pH 7.5, 150 mM NaCl, 1 mM EDTA, 1 mM DTT; conditions: both partners purified

Row | binding result (Ctr9^(1–313)) | stoichiometry N (Ctr9^(1–270)) | Binder
1 | binds | – | DEDLGMPVDLMKFPGLLNKLDSKLLYGFDNVKLDKDDRILLRDPR (domain or fragment, S. cerevisiae, UniProt P38351 59-103, looked up) [Paf1^(59–103)]
2 | – | 1 | Paf1^(34–103) (domain or fragment, S. cerevisiae, UniProt P38351 34-103, looked up, In the crystal it stood as part of the single-chain fusion m36; source: E. coli BL21(DE3) Codon Plus, co-expressed with a Ctr9 fragment, purified (Ni-NTA, SEC)) ETNADSSQLINSLYIKTNVTNLIQQDEDLGMPVDLMKFPGLLNKLDSKLLYGFDNVKLDKDDRILLRDPR
